Measurements: patent US20240150451A1 (Janssen / Centocor, published 2024)
Substitutions are numbered along the chain they refer to. One block for each binder: values may come before it.

Key:
[1] = target: T1, Tau peptide Start 413 Stop 432; assay: Pepscan ELISA on an array of linear 20-mer Tau 441 peptides; parameters: peptide ELISA signal (no name or unit printed): unit not given here
T1 peptide: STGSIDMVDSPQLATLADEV
From the text: (§1) An amino functionalized polypropylene support was obtained by grafting with a proprietary hydrophilic polymer formulation, followed by reaction with t-butyloxycarbonyl-hexamethylenediamine (BocHMDA) using dicyclohexylcarbodiimide (DCC) with N-hydroxybenzotriazole (HOBt), and subsequent cleavage of the Boc-groups using trifluoroacetic acid (TFA). Standard Fmoc-peptide synthesis was used to synthesize peptides on the amino-functionalized solid support by custom modified JANUS liquid handling stations (Perkin Elmer). Synthesis of structural mimics was done using Pepscan's proprietary Chemically Linked Peptides on Scaffolds (CLIPS) technology. CLIPS technology allows to structure peptides into single loops, double loops, triple loops, sheet-like folds, helix-like folds, and combinations thereof. CLIPS templates are coupled to cysteine residues. The side-chains of multiple cysteines in the peptides are coupled to one or two CLIPS templates. For example, a 0.5 mM solution of the P2 CLIPS (2,6-bis(bromomethyl)pyridine) is dissolved in ammonium bicarbonate (20 mM, pH 7.8)/acetonitrile (1:3 (v/v)). This solution is added onto the peptide arrays. The CLIPS template will bind to side-chains of two cysteines as present in the solid-phase bound peptides of the peptide-arrays (455 wells plate with 3 μl wells). The peptide arrays are gently shaken in the solution for 30 to 60 minutes while completely covered in solution. Finally, the peptide arrays are washed extensively with excess of H₂O and sonicated in disrupt-buffer containing 1% SDS/0.1% beta-mercaptoethanol in PBS (pH 7.2) at 70° C. for 30 minutes, followed by sonication in H₂O for another 45 minutes. The T3 CLIPS carrying peptides were made in a similar way but now with three cysteines.
(§2) The binding of antibodies (recombinantly expressed as IgG2a) to each of the synthesized peptides was tested in a pepscan-based ELISA. The peptide arrays were incubated with primary antibody solution (overnight at 4° C.). After washing, the peptide arrays were incubated with a 1/1000 dilution of an appropriate antibody peroxidase conjugate (SBA; Table 4) for one hour at 25° C. After washing, the peroxidase substrate 2,2′-azino-di-3-ethylbenzthiazoline sulfonate (ABTS) and 20 μl/ml of 3 percent H₂O₂ were added. After one hour, the color development was measured.

[2] = target: T2, Tau peptide Start 421 Stop 440; assay: as above; parameters: peptide ELISA signal (no name or unit printed): unit not given here
T2 peptide: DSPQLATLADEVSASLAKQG
From the text: as §1, §2

[3] = target: T3, Tau peptide Start 411 Stop 430; assay: as above; parameters: peptide ELISA signal (no name or unit printed): unit not given here
T3 peptide: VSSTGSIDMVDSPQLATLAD
From the text: as §1, §2

[4] = target: T4, Tau peptide Start 419 Stop 438; assay: as above; parameters: peptide ELISA signal (no name or unit printed): unit not given here
T4 peptide: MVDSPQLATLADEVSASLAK
From the text: as §1, §2

[5] = target: T5, Tau peptide Start 3 Stop 22 (Synthetic linear peptide immobilised on a Pepscan array; the attachment to the array cannot be carried by the letters.); assay: as above; parameters: peptide ELISA signal (no name or unit printed): unit not given here
T5 peptide: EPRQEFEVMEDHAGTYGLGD
From the text: as §1, §2

[6] = target: T6, Tau peptide Start 417 Stop 436; assay: as above; parameters: peptide ELISA signal (no name or unit printed): unit not given here
T6 peptide: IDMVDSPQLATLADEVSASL
From the text: as §1, §2

[7] = target: T7, Tau peptide Start 415 Stop 434; assay: as above; parameters: peptide ELISA signal (no name or unit printed): unit not given here
T7 peptide: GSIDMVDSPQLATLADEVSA
From the text: as §1, §2

[8] = target: Tau peptide Start 1 Stop 20 (Synthetic linear peptide immobilised on a Pepscan array; the attachment to the array cannot be carried by the letters.); assay: as above; parameters: peptide ELISA signal (no name or unit printed): unit not given here
From the text: as §1, §2

[9] = target: T8, Tau peptide Start 422 Stop 441; assay: as above; parameters: peptide ELISA signal (no name or unit printed): unit not given here
T8 peptide: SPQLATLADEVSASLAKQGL
From the text: as §1, §2

[10] = target: T9, recombinant full-length tau 2N4R (control tau) (human, UniProt P10636 2-758); assay: direct ELISA, 10 ng/well coated control tau, hybridoma screening
T9 construct: also called recombinant WT (2N4R) tau; Rec; Tau
Experimental: Obtained hybridomas were seeded in 96-well plates and screened after 10 days in a direct ELISA on 25 ng/well coated PHF-tau as described below. Positive cells were tested for cross-reactivity on 10 ng/well coated with control tau (SEQ ID NO: 51) expressed in E. Coli BL21 cells and purified by heat treatment and ammonium sulphate precipitation. […] PT/66, PT/69 and hTau/60 were prioritized for V-region cloning and humanization.

Chain of Tau peptide Start 1 Stop 20 (Synthetic linear peptide immobilised on a Pepscan array; the attachment to the array cannot be carried by the letters.) (peptide, as listed by the source limits assumed): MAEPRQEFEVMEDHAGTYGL

- binding result [1]: no binding
- peptide ELISA signal (no name or unit printed) [1]: 38
- peptide ELISA signal (no name or unit printed) [2]: 2880
- peptide ELISA signal (no name or unit printed) [3]: 29
- peptide ELISA signal (no name or unit printed) [4]: 2090
- peptide ELISA signal (no name or unit printed) [5]: 44
- peptide ELISA signal (no name or unit printed) [6]: 637
- binding result [7]: no binding
- peptide ELISA signal (no name or unit printed) [7]: 40
- peptide ELISA signal (no name or unit printed) [8]: 38
- peptide ELISA signal (no name or unit printed) [9]: 2930
- binding result [10]: binds
B1: PT53 monoclonal antibody (recombinant, mouse IgG2a/kappa) (antibody, V domains shown)
VH: EVKLMESGGGLVQPGASLRLSCAASGFTFTDYYMSWVRQPPGKAPEWLALIRNKANGYTTKYAASVKGRFTISRDNSQNILYLQMNTLRAEDSATYYCVKAVWFAYWGQGTLVTVSA
VL: DIVITQDELSNPVTSGESVSISCRSSKSLLYKDGKTYLNWFLQRPGQSPQLLIYLMSTRASGVSDRFSGSGSGTDFTLEISRVKAEDVGVYYCLQLVEYPYTFGGGTKLEIKR
notes: also called PT50/PT53

- binding result [1]: no binding
- peptide ELISA signal (no name or unit printed) [1]: 30
- peptide ELISA signal (no name or unit printed) [2]: 2900
- peptide ELISA signal (no name or unit printed) [3]: 31
- peptide ELISA signal (no name or unit printed) [4]: 2900
- peptide ELISA signal (no name or unit printed) [5]: 45
- peptide ELISA signal (no name or unit printed) [6]: 2800
- binding result [7]: no binding
- peptide ELISA signal (no name or unit printed) [7]: 78
- peptide ELISA signal (no name or unit printed) [8]: 43
- peptide ELISA signal (no name or unit printed) [9]: 2920
- binding result [10]: binds
B2: PT81 monoclonal antibody (recombinant, mouse IgG2a/kappa) (antibody, V domains shown)
VH: QVQLQQPGAELVRPGASVILSCKASGYTFTNSWIHWVKQRPGRVLEWIGRIDPNSGGTRYNENFKSKATLTVDKPSSTAYMQLSSLTSEDSAVYFCSRGVLHDYWGQGTTLTVSS
VL: B1 VL with G69V, K84Q, L94Q
